# The supplement of paper PMC7877785
# ± gives the uncertainty stated by the source.
# Assay: self-splicing fitness, log relative to wild type (ln ratio); higher = more splicing; Tetrahymena group I intron in knt gene, E. coli kanamycin selection, DiMSum; sequences stand for … in CUCUCU…GGAGGGAAAAGUUAUCAGGCAUGCACCUGGUAGCUAGUCUUUAAACCAAUAGAUUGCAUCGGUUUAAAAGGCAAGACCGUCAAAUUGCGGGAAAGGGGUCAACAGCCGUUCAGUACCAAGUCUCAGGGGAAACUUUGAGAUGGCCUUGCAAAGGGUAUGGUAAUAAGCUGACGGACAUGGUCCUAACCACGCAGCCAAGUCCUAAGUCAACAGAUCUUCUGUUGAUAUGGAUGCAGUUCACAGACUAAAUGUCGGUCGGGGAAGAUGUAUUCUUCUCAUAAGAUAUAGUCGGACCUCUCCUUAAUGGGAGCUAGCGGAUGAAGUGAUGCAACACUGGAGCCGCUGGGAACUAAUUUGUAUGCGAAAGUAUAUUGAUUAGUUUUGGAGUACUCGUGGUCG
# Method in brief: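 A randomised library covering all eight P1ex-region intron nucleotides was built with the intron in the knt kanamycin-resistance gene on pET-22b(+) and held in E. coli BL21(DE3). Cells were grown overnight at 37°C or 30°C on LB agar, with or without 25 μg/mL kanamycin, plus 100 μg/mL carbenicillin, 50 μM IPTG and 0.2% rhamnose, and pooled colonies were amplicon-sequenced on an Illumina HiSeq 2500. DiMSum fitness is the error-weighted combination of wild-type-normalised replicate fold changes, kanamycin versus none.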
Sequence,self-splicing fitness (ln) (30 °C),self-splicing fitness (ln) (37 °C)
CGCAAGCAAUAUUACGUAAA,-3.18 ± 0.14,-2.12 ± 0.18
AGCCAGCAAUAUUACGGGGA,-1.87 ± 0.12,-0.713 ± 0.11
UUGAAGCAAUAUUACGGACA,0.534 ± 0.1,0.655 ± 0.14
UAUGAGCAAUAUUACGCGCC,-4.05 ± 0.42,
CCUUAGCAAUAUUACGGACC,-2.33 ± 0.3,
AGGAAGCAAUAUUACGGCCU,-2.44 ± 0.37,-1.5 ± 0.3
CAUUAGCAAUAUUACGAUAG,-0.405 ± 0.094,-0.688 ± 0.11
GAGUAGCAAUAUUACGGAUU,-1.41 ± 0.073,-0.46 ± 0.095
AGAGAGCAAUAUUACGCAUA,-3.84 ± 0.39,-2.96 ± 0.47
GCCUAGCAAUAUUACGGGGU,-3.83 ± 0.19,-2.19 ± 0.19
CCCUAGCAAUAUUACGCCGC,-3.7 ± 0.25,-1.96 ± 0.27
AGCGAGCAAUAUUACGCCAC,-1.84 ± 0.39,
CUACAGCAAUAUUACGGCAU,-3.6 ± 0.23,-2.34 ± 0.23
UUUCAGCAAUAUUACGGUAG,-0.521 ± 0.088,-0.526 ± 0.12
GGGCAGCAAUAUUACGAGGC,-2.26 ± 0.29,-2.9 ± 0.37
CAACAGCAAUAUUACGCGCU,-3.18 ± 0.23,-1.97 ± 0.19
UUAUAGCAAUAUUACGAACU,-2.51 ± 0.18,-0.944 ± 0.18
CUAUAGCAAUAUUACGUUGG,-3.71 ± 0.16,-2.79 ± 0.17
UAAGAGCAAUAUUACGCGUU,,-2.04 ± 0.33
ACUUAGCAAUAUUACGUGAC,-2.05 ± 0.21,-2.54 ± 0.29

Sequence,self-splicing fitness (ln) (30 °C),self-splicing fitness (ln) (37 °C)
GUGGAGCAAUAUUACGUAAG,-3.04 ± 0.26,-1.21 ± 0.47
GGGUAGCAAUAUUACGGCGA,-0.516 ± 0.1,0.326 ± 0.12
AGCUAGCAAUAUUACGCUGA,-2.63 ± 0.18,-0.955 ± 0.09
GUCUAGCAAUAUUACGCACA,-0.72 ± 0.12,-0.113 ± 0.14
CCGGAGCAAUAUUACGUGGA,-3.59 ± 0.47,-2.16 ± 0.25
AGUAAGCAAUAUUACGGCUU,-0.592 ± 0.086,-0.0743 ± 0.11
UUUUAGCAAUAUUACGUAAU,-3.62 ± 0.28,-1.6 ± 0.22
CGUUAGCAAUAUUACGCAUU,-4.27 ± 0.25,-1.29 ± 0.12
GGGCAGCAAUAUUACGCAUG,-1.36 ± 0.1,-0.482 ± 0.12
GCUCAGCAAUAUUACGAAGC,-2.75 ± 0.12,-2.33 ± 0.15
GCAAAGCAAUAUUACGAGGC,-3.55 ± 0.34,-2.77 ± 0.4
GUUGAGCAAUAUUACGAGUG,-2.98 ± 0.19,-3.28 ± 0.28
UACAAGCAAUAUUACGAUCU,-0.941 ± 0.075,-0.61 ± 0.077
UGUUAGCAAUAUUACGCUAG,-1.94 ± 0.5,-1.4 ± 0.47
GAACAGCAAUAUUACGGUCG,-1.17 ± 0.069,-0.372 ± 0.098
CGCGAGCAAUAUUACGCUAA,-2.95 ± 0.27,-2.55 ± 0.28
UAACAGCAAUAUUACGAACG,-0.391 ± 0.078,0.172 ± 0.11
AUUAAGCAAUAUUACGGAAA,-2.98 ± 0.29,-1.77 ± 0.26
ACAUAGCAAUAUUACGCCGC,,-2.65 ± 0.4
